The labels stand for the following.
T1: Human ULBP2 (recombinant) (human, UniProt Q9BZM5 26-217)
T1 construct: bought (R&D Systems) as ULBP2-Fc or ULBP2-His; also called recombinant ULBP2
T1 sequence: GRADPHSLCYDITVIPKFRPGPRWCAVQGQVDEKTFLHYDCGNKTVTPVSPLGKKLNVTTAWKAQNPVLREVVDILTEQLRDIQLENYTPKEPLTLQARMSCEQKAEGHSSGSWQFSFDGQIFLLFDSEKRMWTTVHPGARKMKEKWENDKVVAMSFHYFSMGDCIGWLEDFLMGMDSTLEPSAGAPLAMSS

B1: ULBP2xCD3 bispecific CD58 fusion containing CD3 variant CD3-01 (bispecific antibody, V domains shown)
VH: EVQLLESGGGLVQPGGSLKLSCAASGFTFNTYAMNWVRKAPGKGLEWVARIRSKYNNYATYYADSVKDRFTISRDDSKNTAYLQMNNLKTEDTAVYYCVRHGNFGNSYVSWFAYWGQGTLVTVSS
VL: ELVVTQEPSLTVSPGGTVTLTCRSSTGAVTTSNYANWVQDKPGQAPRGLIGGTNKRAPGTPARFSGSLLGGKAALTLSGVQPEDEAEYYCALWYSNLWVFGGGTKLTVL
B2: ULBP2xCD3 bispecific CD58 fusion containing CD3 variant CD3-A5 (bispecific antibody, V domains shown)
VH: B1 VH with N106D, S107D
VL: B1 VL with N96Q
B3: ULBP2xCD3 bispecific CD58 fusion containing CD3 variant CD3-A9 (bispecific antibody, V domains shown)
VH: B1 VH with N103S
VL: B1 VL with N96Q
B4: ULBP2xCD3 bispecific CD58 fusion containing CD3 variant CD3-A6 (bispecific antibody, V domains shown)
VH: B1 VH with T31D
VL: B1 VL
B5: ULBP2xCD3 bispecific CD58 fusion containing CD3 variant CD3-A8 (bispecific antibody, V domains shown)
VH: B1 VH with R50K, N106D
VL: B1 VL with N96Q
B6: ULBP2xCD3 bispecific CD58 fusion containing CD3 variant CD3-A2 (bispecific antibody, V domains shown)
VH: B1 VH
VL: B1 VL with G52D
B7: EIP0373 (bispecific antibody)
heavy 1: EVQLLESGGGLVQPGGSLKLSCAASGFTFNTYAMNWVRKAPGKGLEWVARIRSKYNNYATYYADSVKDRFTISRDDSKNTAYLQMNNLKTEDTAVYYCVRHGNFGNSYVSWFAYWGQGTLVTVSSASTKGPSVFPLAPSSKSTSGGTAALGCLVKDYFPEPVTVSWNSGALTSGVHTFPACLQSSGLYSLSSVVTVPSSSLGTQTYICNVNHKPSNTKVDKKVEPKSSDKTHTCPPCPAPEAAGAPSVFLFPPKPKDTLMISRTPEVTCVVVDVSHEDPEVKFNWYVDGVEVHNAKTKPREEQYNSTYRVVSVLTVLHQDWLNGKEYKCKVSNKALPAPIEKTISKAKGQPREPQVCTLPPSREEMTKNQVSLSCAVKGFYPSDIAVEWESNGQPENNYKTTPPVLDSDGSFFLVSKLTVDKSRWQQGNVFSCSVMHEALHNHYTQKSLSLSPG
light 1: ELVVTQEPSLTVSPGGTVTLTCRSSTGAVTTSNYANWVQDKPGQAPRGLIGGTNKRAPGTPARFSGSLLGGKAALTLSGVQPEDEAEYYCALWYSNLWVFGGGTKLTVLGQPKANPTVTLFPPSSEELQANKADLVCLISDFYPGAVTVAWKADGSPVKAGVETCKPSKQSNNKYAASSYLSLTPEQWKSHRSYSCQVTHEGSTVEKTVAPTESS
heavy 2: not shown
light 2: not shown
notes: IgG1 bispecific, pairing set D; also called EGFR(Cetuximab)-SP34; V373
B8: EIP0506 (bispecific antibody, human IgG1, kappa, lambda)
heavy 1: B7 heavy 1
light 1: B7 light 1
heavy 2: QVQLVQSGAEVKKPGSSVKVSCKASGGTFSNYWMHWVRDAPGQGLEWMGATYRGHSDTYYNQKFKGRVTITADKSTSTAYMELSSLRSEDTAVYYCARGAIYDGYDVLDNWGQGTLVTVSSASTKGPSVFPLAPSSKSTSGGTAALGCLVDDYFPEPVTVSWNSGALTSGVHTFPAVLQSSGLYSLSSVVTVPSSSLGTQTYICNVNHKPSNTKVDKKVEPKSCDKTHTCPPCPAPEAAGAPSVFLFPPKPKDTLMISRTPEVTCVVVDVSHEDPEVKFNWYVDGVEVHNAKTKPREEQYNSTYRVVSVLTVLHQDWLNGKEYKCKVSNKALPAPIEKTISKAKGQPREPQVYTLPPCREEMTKNQVSLWCLVKGFYPSDIAVEWESNGQPENNYKTTPPVLDSDGSFFLYSKLTVDKSRWQQGNVFSCSVMHEALHNHYTQKSLSLSPG
light 2: not shown
notes: IgG1 bispecific, pairing set D; also called BCMA(Belantamab)-SP34; V506
B9: EIP0504 (bispecific antibody, V domains shown)
VH 1: B1 VH
VL 1: B1 VL
VH 2: EVQLVQSGAEVKKPGESLKISCKGSGYAFSTSWMNWVRQMPGKGLEWMGRIYPGDGDTNYNGNFKGQVTISADKSISTAYLQWSSLKASDTAMYYCARGGELRLEAMDSWGQGTLVTVSS
VL 2: EIVMTQSPATLSLSPGERITLSCSASSSIHSNYLHWYQQKPGQAPRLLIYRTSNLASGIPARFSGSGSGTDFTLTISSLQPEDFAVYYCQQGFSIPFTFGQGTKLEIK
notes: also called ULBP2(A06)-SP34; EV104.2:CD3.1

Positions count from the first letter of the chain named.

T3 sequence (chain, as listed by the source mutant, chain 1 of 2): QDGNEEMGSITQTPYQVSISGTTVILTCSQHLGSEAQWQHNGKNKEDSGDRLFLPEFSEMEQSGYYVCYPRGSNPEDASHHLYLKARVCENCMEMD
T3 sequence (Q95LI8 22-105, stated change not applied, chain 2 of 2): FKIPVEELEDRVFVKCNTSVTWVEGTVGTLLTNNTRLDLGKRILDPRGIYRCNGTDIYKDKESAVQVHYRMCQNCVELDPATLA

One experiment has as its target T2, human CD3 epsilon/delta heterodimer, biotin labeled (human, UniProt P04234 22-105, biotin labeled).
T2 construct: bought (Acro Biosystems); also called Human CD3e/d
Put plainly: SPR, biotinylated CD3e/d on SA chip.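 Note: analytes injected over immobilized CD3 heterodimer, association 60-120 s and dissociation 120-420 s, rate and affinity constants obtained by fitting sensorgrams to a 1:1 binding model.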
Molecule B1 yielded a Kd of 4.7 nM, a koff of 0.00819 s⁻¹ and a kon of 1.76e+06 M⁻¹ s⁻¹.

Regarding B2, binding was characterised by a dissociation constant (Kd) of 354 nM, the koff was 0.0245 s⁻¹ and the kon was found to be 69200 M⁻¹ s⁻¹.

Molecule B3 had a Kd of 155 nM, a koff of 0.101 s⁻¹ and a kon of 654000 M⁻¹ s⁻¹.

As for B4, binding was put at a Kd of 75 nM, the koff amounted to 0.0479 s⁻¹ and the on-rate constant (kon) worked out at 640000 M⁻¹ s⁻¹.

For B5, the Kd amounted to 147 nM, the koff stood at 0.0635 s⁻¹ and the kon is 432000 M⁻¹ s⁻¹.

B6 registered a Kd of 102 nM, an off-rate (koff) of 0.0263 s⁻¹ and an on-rate constant (kon) of 257000 M⁻¹ s⁻¹.

Another experiment concerns the target T3, cynomolgus CD3 epsilon/delta heterodimer, biotin labeled (cynomolgus, UniProt Q95LI8 22-105, biotin labeled).
T3 construct: bought (Acro Biosystems); also called Cyno CD3e/d
In words: SPR, biotinylated CD3e/d on SA chip.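 Note: analytes injected over immobilized CD3 heterodimer, association 60-120 s and dissociation 120-420 s, rate and affinity constants obtained by fitting sensorgrams to a 1:1 binding model.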
With B1, the Kd was found to be 3.2 nM, the koff is 0.00515 s⁻¹ and the kon is 1.6e+06 M⁻¹ s⁻¹.

Molecule B2 registered a dissociation constant Kd of 368 nM, a koff of 0.0337 s⁻¹ and a kon of 91700 M⁻¹ s⁻¹.

As for B3, the Kd was determined as 212 nM, the koff is 0.0718 s⁻¹ and the kon was 338000 M⁻¹ s⁻¹.

For B4, the Kd was 75 nM, the koff turned out to be 0.0418 s⁻¹ and the on-rate (kon) amounted to 558000 M⁻¹ s⁻¹.

B5 registered a Kd of 137 nM, a koff of 0.0614 s⁻¹ and a kon of 448000 M⁻¹ s⁻¹.

Molecule B6 had a Kd of 89 nM, a koff of 0.0227 s⁻¹ and a kon of 256000 M⁻¹ s⁻¹.

In another experiment the target is T4, human CD3 epsilon (recombinant, plate-coated) (human, UniProt P07766 23-126).
T4 construct: also called CD3ε; Hu CD3 epsilon
In words: sandwich ELISA, plate coated with CD3ε, luminescence (RLU).
B7: the “EC50 (read off the curve)” value was approximately 0.3 µg/mL.

With B8, the “EC50 (read off the curve)” value was approximately 0.5 µg/mL.

Turning to B9, the “EC50 (read off the curve)” value was approximately 0.4 µg/mL.

The target of another experiment is EGFR (UniProt P00533 25-645, limits assumed). Put plainly: sandwich ELISA, plate coated with antigen (legend paragraph 82 names no antigen; EGFR taken as the antigen of the cetuximab arm), luminescence (RLU).
Consider B7, for which the “EC50 (read off the curve)” value was approximately 0.3 µg/mL.

The next experiment deals with T1, Human ULBP2 (recombinant). Put plainly: sandwich ELISA, plate coated with antigen (legend paragraph 82 names no antigen; ULBP2 taken as the antigen of this antibody's target arm), luminescence (RLU).
In the case of B9, the concentration giving a half-maximal response (EC50 (read off the curve)) was approximately 0.6 µg/mL.
